According to US20240117018A1:

Experiments:
Assay in all cases: cell-based or functional assay
[1] = target: HIV-1 Env of pseudovirus SC05_8C11_2344 (HIV-1)
[2] = target: HIV-1 Env of pseudovirus CAAN5342.A2 (HIV-1)
[3] = target: HIV-1 Env of pseudovirus QH0692.42 (HIV-1)
[4] = target: HIV-1 Env of pseudovirus WEAU_d15_410_787 (HIV-1)
[5] = target: HIV-1 Env of pseudovirus REJO4541.67 (HIV-1)
[6] = target: HIV-1 Env of pseudovirus ZM247v1(Rev-) (HIV-1)
[7] = target: HIV-1 Env of pseudovirus HIV-0013095-2.11 (HIV-1)
[8] = target: HIV-1 Env of pseudovirus MS208.A1 (HIV-1)
[9] = target: HIV-1 Env of pseudovirus Q259.d2.17 (HIV-1)
[10] = target: HIV-1 Env of pseudovirus HIV-001428-2.42 (HIV-1)
[11] = target: HIV-1 Env of pseudovirus Ce1176_A3 (HIV-1)
[12] = target: HIV-1 Env of pseudovirus SC422661.8 (HIV-1)
[13] = target: HIV-1 Env of pseudovirus 9004SS_A3_4 (HIV-1)
[14] = target: HIV-1 Env of pseudovirus 1006_11_C3_1601 (HIV-1)
[15] = target: HIV-1 Env of pseudovirus 249M B10 (HIV-1)
[16] = target: HIV-1 Env of pseudovirus CNE21 (HIV-1)
[17] = target: HIV-1 Env of pseudovirus 62357_14_D3_4589 (HIV-1)
[18] = target: HIV-1 Env of pseudovirus Du156.12 (HIV-1)
[19] = target: HIV-1 Env of pseudovirus CAP210.2.00.E8 (HIV-1)
[20] = target: HIV-1 Env of pseudovirus THRO4156.18 (HIV-1)
[21] = target: HIV-1 Env of pseudovirus ZM233M.PB6 (HIV-1)
[22] = target: HIV-1 Env of pseudovirus Ce703010054_2A2 (HIV-1)
[23] = target: HIV-1 Env of pseudovirus ZM197M.PB7 (HIV-1)
[24] = target: HIV-1 Env of pseudovirus Q23.17 (HIV-1)
[25] = target: HIV-1 Env of pseudovirus ZM135M.PL10a (HIV-1)
[26] = target: HIV-1 Env of pseudovirus CNE20 (HIV-1)
[27] = target: HIV-1 Env of pseudovirus CNE19 (HIV-1)
[28] = target: HIV-1 Env of pseudovirus 6535.3 (HIV-1)
[29] = target: HIV-1 Env of pseudovirus 231965.c01 (HIV-1)
[30] = target: HIV-1 Env of pseudovirus 620345.c01 (HIV-1)
[31] = target: HIV-1 Env of pseudovirus X1254_c3 (HIV-1)
[32] = target: HIV-1 Env of pseudovirus A07412M1.vrc12 (HIV-1)
[33] = target: HIV-1 Env of pseudovirus 6952.v1.c20 (HIV-1)
[34] = target: HIV-1 Env of pseudovirus 6545.v4.c1 (HIV-1)
[35] = target: HIV-1 Env of pseudovirus CNE5 (HIV-1)
[36] = target: HIV-1 Env of pseudovirus 3016.v5.c45 (HIV-1)
[37] = target: HIV-1 Env of pseudovirus T278-50 (HIV-1)

Substance 8ANC195 (antibody) has an IC50 [1] of 0.47 µg/mL, an IC80 [1] of 3.06 µg/mL and an IC50 [2] greater than 50 µg/mL. For the same substance, the IC80 [2] was greater than 50 µg/mL, the IC50 [3] was 2.71 µg/mL and the IC80 [3] was 17.1 µg/mL. It also gave an IC50 [4] greater than 50 µg/mL, an IC80 [4] greater than 50 µg/mL and an IC50 [5] of 0.08 µg/mL. It also gave an IC80 [5] of 0.68 µg/mL, an IC50 [6] of 3.41 µg/mL and an IC80 [6] of 25.1 µg/mL. The IC50 [7] was 0.32 µg/mL, the IC80 [7] was 1.85 µg/mL and the IC50 [8] was greater than 50 µg/mL. It also gave an IC80 [8] greater than 50 µg/mL, an IC50 [9] greater than 50 µg/mL and an IC80 [9] greater than 50 µg/mL. For the same substance, the IC50 [10] was greater than 50 µg/mL, the IC80 [10] was greater than 50 µg/mL and the IC50 [11] was 4.45 µg/mL. It also gave an IC80 [11] of 35.2 µg/mL, an IC50 [12] of 0.29 µg/mL and an IC80 [12] of 4.67 µg/mL. For the same substance, the IC50 [13] was 0.17 µg/mL, the IC80 [13] was 0.81 µg/mL and the IC50 [14] was 0.43 µg/mL. The IC80 [14] was 1.98 µg/mL, the IC50 [15] was greater than 50 µg/mL and the IC80 [15] was greater than 50 µg/mL. The IC50 [16] was 0.27 µg/mL, the IC80 [16] was 1.52 µg/mL and the IC50 [17] was greater than 50 µg/mL. It also gave an IC80 [17] greater than 50 µg/mL, an IC50 [18] of 0.22 µg/mL and an IC80 [18] of 1.56 µg/mL. The IC50 [19] was greater than 50 µg/mL, the IC80 [19] was greater than 50 µg/mL and the IC50 [20] was greater than 50 µg/mL. The IC80 [20] was greater than 50 µg/mL, the IC50 [21] was 7.39 µg/mL and the IC80 [21] was 43.5 µg/mL. It also gave an IC50 [22] of 13.6 µg/mL, an IC80 [22] greater than 50 µg/mL and an IC50 [23] of 23.4 µg/mL. For the same substance, the IC80 [23] was greater than 50 µg/mL, the IC50 [24] was 2.55 µg/mL and the IC80 [24] was 2.55 µg/mL. The IC50 [25] was greater than 50 µg/mL, the IC80 [25] was greater than 50 µg/mL and the IC50 [26] was 0.5 µg/mL. For the same substance, the IC80 [26] was 3.19 µg/mL, the IC50 [27] was 0.29 µg/mL and the IC80 [27] was 1.73 µg/mL. It also gave an IC50 [28] of 0.2 µg/mL and an IC80 [28] of 0.91 µg/mL.
Work on NIH 45-46 (antibody) yielded an IC50 [1] of 0.14 µg/mL, an IC80 [1] of 0.38 µg/mL and an IC50 [2] of 0.11 µg/mL. It also gave an IC80 [2] of 0.33 µg/mL, an IC50 [3] of 0.55 µg/mL and an IC80 [3] of 1.56 µg/mL. For the same substance, the IC50 [4] was 0.01 µg/mL, the IC80 [4] was 0.03 µg/mL and the IC50 [5] was 0.003 µg/mL. It also gave an IC80 [5] of 0.01 µg/mL, an IC50 [6] of 1.64 µg/mL and an IC80 [6] greater than 50 µg/mL. It also gave an IC50 [7] of 0.01 µg/mL, an IC80 [7] of 0.03 µg/mL and an IC50 [8] of 0.09 µg/mL. For the same substance, the IC80 [8] was 0.6 µg/mL, the IC50 [9] was 0.01 µg/mL and the IC80 [9] was 0.06 µg/mL. It also gave an IC50 [10] of less than 0.001 µg/mL, an IC80 [10] of 0.01 µg/mL and an IC50 [11] of 1.29 µg/mL. It also gave an IC80 [11] of 5.55 µg/mL, an IC50 [12] of 0.01 µg/mL and an IC80 [12] of 0.07 µg/mL. It also gave an IC50 [13] of 0.18 µg/mL, an IC80 [13] of 0.65 µg/mL and an IC50 [14] of 0.05 µg/mL. It also gave an IC80 [14] of 0.31 µg/mL, an IC50 [15] of 0.04 µg/mL and an IC80 [15] of 0.17 µg/mL. For the same substance, the IC50 [16] was 7.53 µg/mL, the IC80 [16] was greater than 50 µg/mL and the IC50 [17] was 0.05 µg/mL. For the same substance, the IC80 [17] was 0.22 µg/mL, the IC50 [18] was 0.01 µg/mL and the IC80 [18] was 0.05 µg/mL. For the same substance, the IC50 [19] was greater than 50 µg/mL, the IC80 [19] was greater than 50 µg/mL and the IC50 [20] was 1.59 µg/mL. For the same substance, the IC80 [20] was 6.02 µg/mL, the IC50 [21] was 1.86 µg/mL and the IC80 [21] was 16.5 µg/mL. For the same substance, the IC50 [22] was 0.22 µg/mL, the IC80 [22] was 0.97 µg/mL and the IC50 [23] was 0.14 µg/mL. It also gave an IC80 [23] of 0.64 µg/mL, an IC50 [24] of 0.14 µg/mL and an IC80 [24] of 0.6 µg/mL. It also gave an IC50 [25] of 0.36 µg/mL, an IC80 [25] of 3.11 µg/mL and an IC50 [26] of 8.71 µg/mL. For the same substance, the IC80 [26] was 47 µg/mL, the IC50 [27] was 0.07 µg/mL and the IC80 [27] was 0.37 µg/mL. It also gave an IC50 [28] of 0.14 µg/mL and an IC80 [28] of 0.28 µg/mL.
N49P19 (antibody) showed a neutralization IC50 [29] greater than 50 µg/mL, a neutralization IC80 [29] greater than 50 µg/mL and a neutralization MPI [29] of 22. The neutralization IC50 [13] was 0.661 µg/mL, the neutralization IC80 [13] was 3.09 µg/mL and the neutralization MPI [13] was 100. For the same substance, the neutralization IC50 [30] was greater than 50 µg/mL, the neutralization IC80 [30] was greater than 50 µg/mL and the neutralization MPI [30] was 0. For the same substance, the neutralization IC50 [31] was greater than 50 µg/mL, the neutralization IC80 [31] was greater than 50 µg/mL and the neutralization MPI [31] was 48. For the same substance, the neutralization IC50 [32] was 3.89 µg/mL, the neutralization IC80 [32] was 48.8 µg/mL and the neutralization MPI [32] was 80. For the same substance, the neutralization IC50 [33] was greater than 50 µg/mL, the neutralization IC80 [33] was greater than 50 µg/mL and the neutralization MPI [33] was 0. For the same substance, the neutralization IC50 [34] was greater than 50 µg/mL, the neutralization IC80 [34] was greater than 50 µg/mL and the neutralization MPI [34] was 2. The neutralization IC50 [35] was 0.748 µg/mL, the neutralization IC80 [35] was 3.29 µg/mL and the neutralization MPI [35] was 100. For the same substance, the neutralization IC50 [36] was greater than 50 µg/mL, the neutralization IC80 [36] was greater than 50 µg/mL and the neutralization MPI [36] was 9. It also gave a neutralization IC50 [37] greater than 50 µg/mL, a neutralization IC80 [37] greater than 50 µg/mL and a neutralization MPI [37] of 35.
